# Laboratory results taken from the supplement of paper PMC12042874.
# ± gives the uncertainty stated by the source.
# Assay: amyloid nucleation score (Sup35N fusion, yeast selection) (log enrichment); library NNK1; higher = more nucleation; inactive = no reads after selection
# Procedure, shortened: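 DiMSum was used to calculate nucleation scores as log enrichment of output over input reads, centred on the mode score of non-aggregating sequences. Sequences with fewer than 100 input reads were not scored. Input and output came from Illumina sequencing of plasmid inserts in psi-negative yeast expressing peptides of 20 random codons fused to Sup35N, induced 24 hours with 100 μM copper sulfate and then grown 7 days at 30°C on medium lacking adenine and uracil.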
row,Substance,amyloid nucleation score
1,TYIFVIPHLVRSTDWTLFAE,0.017 ± 0.33
2,TYILVFSVIYPSLKYECFCQ,1.6 ± 0.61
3,TYIYSTILEVFYLSLGHVII,0.775 ± 0.35
4,TYMFGHMGADMKGRRSWWCE,0.354 ± 0.44
5,TYRNS,-0.891 ± 1.2
6,TYRVVFVAGIHQFNFVPLVR,0.009 ± 1.1
7,TYSWEDCTYGITPSGTYRSN,1.33 ± 0.38
8,TYYNLYSVRGGCFAHDVLAC,0.234 ± 0.31
9,VAADMEARYIFCYIINVDAR,4.98 ± 0.083
10,VAFRLTIGCVVSVSINVAGV,1.19 ± 0.62
11,VAFWFVLGWKGSLYYKGLAD,0.334 ± 1.1
12,VALLTNWFTGPQPLTMFTRV,1.14 ± 0.9
13,VALWYFCCVVAYYGGARLVS,2.06 ± 0.33
14,VAMILYGFTFWILRCNEWCR,0.377 ± 0.24
15,VAMRIWLVNACLGG,0.092 ± 0.63
16,VASFRMG,1.37 ± 0.14
17,VASRTLLCSLGRKRVVVCGC,-0.667 ± 0.29
18,VAWPRGPVKARGIYISGRIC,inactive
19,VCAEWGAVAPGIGKEYQQRM,2.04 ± 0.32
20,VCGRGKGDD,-0.107 ± 0.27
21,VCKITDLAARCHSREFWESR,0.253 ± 0.25
22,VCKVRRL,0.461 ± 0.63
23,VCLVDSSWGW,3.86 ± 0.085
24,VCMRTAGCFSDTYGVHGFKI,1.21 ± 0.24
25,VCMTTLCWISSGVGFLHWSS,3.98 ± 0.068

row,Substance,amyloid nucleation score
1,VCRTPSLRHHTFDVYFWSDV,-0.105 ± 1.4
2,VCYCLKWEAMSVKLLCMGCA,-0.688 ± 0.6
3,VDGRDKSFQSFYCKK,0.236 ± 0.56
4,VDISVAYRC,-1.59 ± 1.3
5,VDKNMFI,-0.021 ± 1.2
6,VDNFIYLVNYLHTRNFISRH,-0.287 ± 0.35
7,VDSFRGHIESFPSLRTFIVS,inactive
8,VDTLLARIIRLRHQFSNTAV,0.16 ± 0.29
9,VDVANGLADVYLLQ,-0.009 ± 0.57
10,VDVCCDGYRYLW,-0.754 ± 0.39
11,VDVQGICRHISFNIAGA,-0.035 ± 0.72
12,VEKRKTFRLGAFGEVRVICS,0.461 ± 0.99
13,VELSRASNLCQDNIREHMQV,-0.32 ± 0.31
14,VEVCRTNWLVEL,1.09 ± 0.57
15,VEYVQYFWSSGGVYGSDTGW,0.024 ± 0.76
16,VFAVLRLPPKMTARSMGASP,0.661 ± 0.61
17,VFCVSRTINGYN,-0.374 ± 0.48
18,VFGDT,0.149 ± 0.97
19,VFLLVPWPVSFGGRIHACEW,0.286 ± 0.47
20,VFLYFIVLNANHCFIMPEHF,3.42 ± 0.089
21,VFNLMI,0.381 ± 0.28
22,VFQVTWGWSCMREVELSSGT,0.343 ± 0.67
23,VFSDQQDHQHGWTYETSLSA,0.619 ± 0.7
24,VFSMC,inactive
25,VFSNLELTFDRGCFPVRCLR,-0.482 ± 0.35

row,Substance,amyloid nucleation score
1,VFTACVCGRVEDISDCVPAL,-0.071 ± 0.76
2,VFWGDKMSLLDLSVTNIMSI,1.49 ± 0.4
3,VFWSV,-0.096 ± 0.5
4,VFYDNSARSVCNPNYGWTFS,0.181 ± 0.48
5,VGCADEMVPMEFMCWLGIIF,-0.909 ± 2.7
6,VGCFLIKSGEQ,-0.385 ± 0.36
7,VGFVATNCRWSCFS,5.5 ± 0.11
8,VGHYDNSYGRNGLLTTR,-0.179 ± 0.53
9,VGIILRLVQYSDEYYSCYAG,-2.62 ± 2.4
10,VGLIDANTSSTSWCEGMRNS,-0.321 ± 0.47
11,VGLSVRACNFTRVGLMSFRD,0.388 ± 0.37
12,VGNSSGWLTNHLAEKRGQTM,0.268 ± 1.1
13,VGNWYPGIG,inactive
14,VGRACRPDWFLFLRRRKGSR,-0.344 ± 0.44
15,VGSNYVCVI,-0.545 ± 0.5
16,VGSSVPGCRAGVFGLLDRCI,-0.489 ± 1.7
17,VGTFTTELKVVGRIDIVWAR,0.723 ± 0.46
18,VGVYGRYIV,-0.135 ± 0.28
19,VGWFSNESWYLAVNDYGPA,0.335 ± 0.3
20,VGYLFRSTSFV,inactive
21,VHATLLNHA,0.898 ± 0.64
22,VHKAGDFNVTAFVNSNVFVS,inactive
23,VHKDFHANANRVSWQLAL,-0.243 ± 0.73
24,VHLCLCRCVLCAENGLWPFS,-0.761 ± 1.2
25,VHRDFGSENYSTLEVCNSLT,1.16 ± 0.84

row,Substance,amyloid nucleation score
1,VIAILLDGHLKVFTTLGYNR,-1.59 ± 1.5
2,VIAKRPSMWGSKRNFRLVRV,0.512 ± 0.88
3,VIDKDGVANGKVVLASHCVN,-0.766 ± 0.86
4,VIFYTFMVRTITACCLKLWV,inactive
5,VIHYCYSCFSADQAGLLFTR,2.22 ± 0.14
6,VINIFMVSLANTETDPTAHL,8.324 ± 0.071
7,VINRSQIRGHRAFSWVGPSL,0.53 ± 0.38
8,VIQHIYAKDSNCSHLV,-0.529 ± 0.52
9,VIRYSIKSCFLYIKTYQGYM,-0.907 ± 0.43
10,VITSVGWMLVYENQFTNLHL,6.855 ± 0.048
11,VKALGHLRPTWLEKGCNHA,0.289 ± 0.25
12,VKATLSFSQFLHVVSYWGF,-0.342 ± 0.71
13,VKFDLMAI,-0.777 ± 1.7
14,VKGVD,1.19 ± 0.64
15,VKNWMYWQGMSVCRVCRGFY,1.02 ± 0.38
16,VKSYNGVGTMYLSRIMLYQY,0.163 ± 1.4
17,VKTYRPVSRGAKNKVRLAQG,0.642 ± 0.49
18,VKVHEDSIRMEENSSDTYFK,-0.218 ± 0.34
19,VLDFLYILCVTLANDFLKGW,0.961 ± 0.76
20,VLEDCNMRGK,0.789 ± 0.36
21,VLGISLSERNLKGIV,0.232 ± 0.32
22,VLHCCNAESWLGGWPLGVKN,0.85 ± 0.6
23,VLIKLCGYTILIRFGRFLCR,-0.203 ± 0.61
24,VLILELDGS,-1.11 ± 2.7
25,VLILVDGSKMAPTALSCYSH,1.34 ± 0.49

row,Substance,amyloid nucleation score
1,VLKPSLGGCLSHSVMLKLSD,inactive
2,VLLFVRLILWTEGRYNCIMG,-0.801 ± 1.2
3,VLRFGRWSYFVGVLPEKKRQ,-1.18 ± 2.4
4,VLSFDLVTVVGNKFLVWIKR,0.276 ± 0.52
5,VLSFVLDYCNAEV,0.653 ± 0.45
6,VLSRLCLYVSVMSRDNKYGS,2.38 ± 0.46
7,VLTRMDKFGARQTSVTQEAG,0.102 ± 0.62
8,VLYGLGSWLVRNIVLSYSVV,0.106 ± 0.24
9,VLYLDLFWRPPSLKGLL,-0.17 ± 0.32
10,VMAMSMLYSLMRNGKKLHFK,1.67 ± 0.6
11,VMDGYVSGCFLWRCCNRNRS,2.92 ± 0.12
12,VMGIDSFTYAG,-0.315 ± 0.54
13,VMHYYTSVYDVNYVRYSPPW,1.16 ± 0.35
14,VMPRTES,0.408 ± 0.9
15,VMQFGVSGNAGC,0.778 ± 0.55
16,VMRNYFRDPDRPRLKWIYLS,7.095 ± 0.048
17,VMSSKDKLIWYTFL,5.199 ± 0.049
18,VMTRNTCVQVGLEGTSQFAG,0.435 ± 0.26
19,VMTVMVFMRYRGRFVYG,-0.041 ± 0.98
20,VMVIMDS,2.11 ± 0.21
21,VMVQANYMSSSSRSAYLSNM,inactive
22,VMWGQPCQIFSGYAYLRHKV,0.053 ± 0.48
23,VMYHGVLYLVNKKVRAWVVG,-0.511 ± 0.76
24,VNAIRSHAVWNGGQGPRFHS,-0.098 ± 0.42
25,VNAPST,0.413 ± 1.1

row,Substance,amyloid nucleation score
1,VNFYDRAYRIWCCRNASE,3.34 ± 0.088
2,VNIRRRTLFS,0.023 ± 0.3
3,VNKLLS,-0.04 ± 0.28
4,VNMRASSSMLTTVVAFIFPG,6.521 ± 0.047
5,VNRFCSVQVDS,0.074 ± 0.47
6,VNSCFSQYYKGHPTLMHERL,0.01 ± 0.39
7,VNSLVVLF,1.84 ± 0.23
8,VNSNGTPCSMGIHMSGSYSP,0.226 ± 0.48
9,VNTIQASMYW,1.22 ± 0.62
10,VNTVMGTMQLKLCHKLRIVG,0.19 ± 0.71
11,VNVCESTPPDVESRGVCDAG,2.06 ± 0.1
12,VNVGRKYGAVLGPGVNYGAK,0.142 ± 0.29
13,VNWVLIERWVVS,-1.13 ± 0.85
14,VPCLVRA,0.506 ± 0.99
15,VPGRWHSLCASYTLYA,0.469 ± 0.72
16,VPMPGNDQWDGKRGYICIRS,1.31 ± 0.48
17,VPNASLSWISFISHLFYMSS,0.034 ± 0.37
18,VPNFDQSNGQCIGDTVLMWC,1.74 ± 0.49
19,VPNYHAISYIVDLTMCSLFQ,8.383 ± 0.057
20,VPYVISINSMVWVGHRPVLP,6.132 ± 0.057
21,VPYVRMNVR,2.24 ± 0.14
22,VQAVIWWRGRDYGRHRSRPW,-0.35 ± 0.35
23,VQETYGYLYRNNIDRGGHIN,2.07 ± 0.56
24,VQNDTTLHVIFILGRAW,2.44 ± 0.12
25,VQSSFSFYDVVNSPGHRWTW,0.14 ± 0.45

row,Substance,amyloid nucleation score
1,VQYLMWSFTVAKLVMQDYHG,0.835 ± 0.43
2,VRACSCMDCDTVYRNVLSMG,-1.79 ± 2.4
3,VRENLNMLEIHRLGGVKKCV,-1.06 ± 0.95
4,VRFGWVSSTPVVGVSQLCAH,-0.305 ± 1.1
5,VRFLISHRESVLKSMAGCVV,0.815 ± 0.93
6,VRFSLHDRGRQTRTCYSPWA,0.006 ± 0.36
7,VRHGRSYSFLRQGDFMWCGS,-0.306 ± 0.57
8,VRKEKRNCAGLGRTVVWVRG,0.461 ± 0.35
9,VRLCIVHHG,0.527 ± 0.49
10,VRLIRGGFDGHADNAVCRWQ,0.279 ± 0.7
11,VRMNCMDYQFNYLSLLLRTI,-0.401 ± 0.45
12,VRNNYSTSIRVVRMAIMWPG,5.83 ± 0.078
13,VRPNGVYSFRWTYGFPIQRA,0.321 ± 0.6
14,VRTPRRCCSY,-0.096 ± 0.28
15,VRVFGVTEYNRSCSI,-0.847 ± 1.1
16,VRVKLKGLFGFNWDG,0.36 ± 1.2
17,VRVPLRSKMSNPRLMSRQAA,0.089 ± 0.49
18,VRYFCTFLWWSTIRQAQYNI,0.218 ± 0.78
19,VRYYMALMRWDDNVNSMCMG,inactive
20,VSFNCTNGFRIKHVLWSTDN,1.09 ± 0.17
